Patent US20230088461A1 (NANJING LEGEND BIOTECH, published 2023)

Experiments:
recombinant human GPC3 = target: T1, recombinant human GPC3 (human, UniProt P51654 25-559, limits assumed); assay: SPR (Biacore), antibody as ligand, recombinant human GPC3 as analyte, 1:1 Langmuir model
T1 construct: also called hGPC3
Procedure: The binding kinetics of the antibodies to recombinant human GPC3 were measured by the surface plasmon resonance (SPR) (e.g., Biacore). Binding rate (Kₐ) and dissociation rates (Kd) were calculated using a simple one-to-one Langmuir binding model (Biacore Evaluation Software). The equilibrium dissociation constant (KD) is calculated as the ratio Kd/Kₐ.

[1] = target: T2, cynomolgus monkey GPC3 on SK-HEP-1-cmGPC3 cells (cynomolgus monkey, UniProt A0A2K5VK50 24-553); assay: flow cytometry on SK-HEP-1-cmGPC3 cells, PE anti-mouse IgG Fc; also: test concentration or dose not given here
T2 construct: whole, on cells

[2] = target: T3, mouse GPC3 on SK-HEP-1-muGPC3 cells (mouse, UniProt Q8CFZ4 25-553); assay: flow cytometry on SK-HEP-1-muGPC3 cells, PE anti-mouse IgG Fc; also: test concentration or dose not given here
T3 construct: whole, on cells
T3 sequence (Q8CFZ4 25-553 limits assumed): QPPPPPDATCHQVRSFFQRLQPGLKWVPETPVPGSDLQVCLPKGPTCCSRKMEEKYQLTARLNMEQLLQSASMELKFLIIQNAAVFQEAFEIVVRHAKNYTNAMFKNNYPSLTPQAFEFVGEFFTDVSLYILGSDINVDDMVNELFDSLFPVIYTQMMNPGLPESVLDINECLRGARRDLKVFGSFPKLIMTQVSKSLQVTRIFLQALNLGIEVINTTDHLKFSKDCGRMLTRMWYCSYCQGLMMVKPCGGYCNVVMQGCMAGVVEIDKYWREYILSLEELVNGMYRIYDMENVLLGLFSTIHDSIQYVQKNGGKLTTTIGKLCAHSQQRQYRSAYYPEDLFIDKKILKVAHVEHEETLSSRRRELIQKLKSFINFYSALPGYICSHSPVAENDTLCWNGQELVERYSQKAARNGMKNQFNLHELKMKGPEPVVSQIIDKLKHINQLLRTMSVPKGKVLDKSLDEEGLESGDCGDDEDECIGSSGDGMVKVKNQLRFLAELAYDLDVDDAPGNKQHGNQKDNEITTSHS

[3] = target: T4, human GPC3 on SK-HEP-1-huGPC3 cells (human, UniProt P51654 25-554); assay: flow cytometry on SK-HEP-1-huGPC3 cells, PE anti-mouse IgG Fc; also: test concentration or dose not given here
T4 construct: whole, on cells

Kd (recombinant human GPC3): 12.6 nM | koff (recombinant human GPC3): 0.000465 s⁻¹ | kon (recombinant human GPC3): 36900 M⁻¹ s⁻¹ | Positive population, % [1]: 22.3% | Positive population, % [2]: 83.9% | Positive population, % [3]: 91.3%
B1: LAb19310 (antibody, V domains shown)
VH: EVQLQQSGPELVKPGPSLKISCKASGYSFTVSPMTWVKQSHGKNLEWIGLIHPYNGDTTYNQKFKGKATLTVDKSSSTAYMELLSLTSEDSAVYYCARWGNYYPYAMDYWGQGTSVTVSS
VL: DIVMTQSQKFMSTSVGDRVSITCKASQNVRSTVAWYQQKPGQSPKALIYLTSNRHTGVPDRFTGSGSGTDFTLTISNVQSEDLADYFCLQHWNYPYTFGGGTKLEIK
notes: Mouse monoclonal antibody purified from hybridoma supernatant
